# Measurements: patent US11370837 (dated 2022)
# T1: human TIGIT-his (human, UniProt Q495A1)
# T1 chain: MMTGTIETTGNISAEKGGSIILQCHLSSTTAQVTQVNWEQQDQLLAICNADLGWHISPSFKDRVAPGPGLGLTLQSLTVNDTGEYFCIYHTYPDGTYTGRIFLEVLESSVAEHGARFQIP
# T2: mouse TIGIT-his (mouse, UniProt P86176)
# T2 chain: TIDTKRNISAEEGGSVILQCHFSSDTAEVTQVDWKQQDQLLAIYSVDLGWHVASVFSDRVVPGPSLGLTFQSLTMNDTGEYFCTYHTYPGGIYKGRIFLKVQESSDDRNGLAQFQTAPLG
# T3: human TIGIT on CHO cells (human, UniProt Q495A1)
# T3 chain: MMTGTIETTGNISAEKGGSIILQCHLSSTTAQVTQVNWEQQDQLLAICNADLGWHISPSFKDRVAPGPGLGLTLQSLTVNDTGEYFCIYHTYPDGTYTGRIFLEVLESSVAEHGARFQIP
# How the values were obtained:
# human TIGIT-his = molecular target: T1, human TIGIT-his; assay: BLI
# mouse TIGIT-his [1] = molecular target: T2, mouse TIGIT-his; assay: BLI
# monkey TIGIT-his = monkey TIGIT-his (monkey); assay: BLI
# human TIGIT on CHO cells [2] = molecular target: T3, human TIGIT on CHO cells; assay: FACS
# human TIGIT on CHO cells [3] = molecular target: T3, human TIGIT on CHO cells; assay: FACS, CHO-expressed antibody
# human TIGIT on CHO cells [4] = molecular target: T3, human TIGIT on CHO cells; assay: competition, CD155 blocking FACS
# human TIGIT on CHO cells [5] = molecular target: T3, human TIGIT on CHO cells; assay: competition, CD155 blocking FACS
# mouse TIGIT-his [6] = molecular target: T2, mouse TIGIT-his; assay: BLI
# human TIGIT on CHO cells [7] = molecular target: T3, human TIGIT on CHO cells; assay: competition
# Sequence of monkey TIGIT-his (monkey) (Q495A1 other isoform, or with tags, fused parts or gaps): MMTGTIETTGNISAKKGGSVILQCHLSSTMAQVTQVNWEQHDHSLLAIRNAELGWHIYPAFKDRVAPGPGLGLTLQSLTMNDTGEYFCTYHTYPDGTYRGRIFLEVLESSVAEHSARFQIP
Binder,Kd (human TIGIT-his) [nM],Kd (mouse TIGIT-his [1]) [nM],Kd (monkey TIGIT-his) [nM],EC50 (human TIGIT on CHO cells [2]) [nM],EC50 (human TIGIT on CHO cells [3]) [nM],IC50 (human TIGIT on CHO cells [4]) [nM],IC50 (human TIGIT on CHO cells [5]) [nM],binding result (mouse TIGIT-his [6]),IC50 (human TIGIT on CHO cells [7]) [nM]
"ADI-27238 (antibody, V domains shown) VH: QVQLVQSGAEVKKPGASVKVSCKASGYTFTSYYMSWVRQAPGQGLEWMGIINPSGGSTSYAQKFQGRVTMTRDTSTSTVYMELSSLRSEDTAVYYCARARYPSSWPYGMDVWGQGTTVTVSS VL: DIQMTQSPSSLSASVGDRVTITCRASQSINSYLNWYQQKPGKAPKLLIYAASSLQSGVPSRFSGSGSGTDFTLTISSLQPEDFATYYCQQSLLTPFTFGGGTKVEIK",–,–,–,0.751,–,0.418,–,–,–
"ADI-27291 (antibody, V domains shown) VH: not shown VL: EIVMTQSPATLSVSPGERATLSCRASQSVSSNLAWYQQKPGQAPRLLIYSASTRATGIPARFSGSGSGTEFTLTISSLQSEDFAVYYCQQYVPHPPFTFGGGTKVEIK",–,–,–,0.852,–,1.61,–,–,–
"ADI-30306 (antibody, V domains shown) VH: QLQLQESGPGLVKPSETLSLTCTVSGGSISSSLYYWGWIRQPPGKGLEWIGSIYYSGSTFYNPSFKSRVTISVDTSKNQFSLKLSSVTAADTAVYYCAREAGRGTTGLLFDYWGQGTLVTVSS VL: DIQMTQSPSTLSASVGDRVTITCRASQSISSWLAWYQQKPGKAPKLLIYKASSLESGVPSRFSGSGSGTEFTLTISSLQPDDFATYYCQQYGILPRTFGGGTKVEIK",2.7,–,3.44,–,–,–,–,no binding,–
"ADI-30311 (antibody, V domains shown) VH: QLQLQESGPGLVKPSETLSLTCTVSGGSIASSVYYWGWIRQPPGKGLEWIGSIYYSGSTWYNPSLKSRVTISVDTSKNQFSLKLSSVTAADTAVYYCAREAGRTGTGLLFDYWGQGTLVTVSS VL: DIQMTQSPSTLSASVGDRVTITCRASQSISSWLAWYQQKPGKAPKLLIYKASSLESGVPSRFSGSGSGTEFTLTISSLQPDDFATYYCQQYGILPRTFGGGTKVEIK",–,–,–,0.757,–,0.531,–,–,–
"ADI-27301 (antibody, V domains shown) VH: QLQLQESGPGLVKPSETLSLTCTVSGGSISSSSYYWGWIRQPPGKGLEWIGSIYYSGSTYYNPSLKSRVTISVDTSKNQFSLKLSSVTAADTAVYYCAREAGRGTTGLLFDYWGQGTLVTVSS VL: DIQMTQSPSTLSASVGDRVTITCRASQSISSWLAWYQQKPGKAPKLLIYKASSLESGVPSRFSGSGSGTEFTLTISSLQPDDFATYYCQQYGILPRTFGGGTKVEIK",–,–,–,0.899,–,0.641,–,–,–
"ADI-30336 (antibody, V domains shown) VH: QLQLQESGPGLVKPSETLSLTCTVSGGSISSSRYYWGWIRQPPGKGLEWIGSIYYSGSTYYNPSLKSRVTISVDTSKNQFSLKLSSVTAADTAVYYCARDGLYHTPEYFQHWGQGTLVTVSS VL: EIVLTQSPATLSLSPGERATLSCRASQSVSSYLAWYQQKPGQAPRLLIYDASNRATGIPARFSGSGSGTDFTLTISSLEPEDFAVYYCQQRFAHPYTFGGGTKVEIK",1.46,–,0.556,0.629,0.13,0.409,0.122,no binding,–
"ADI-30293 (antibody, V domains shown) VH: EVQLVESGGGLVQPGGSLRLSCAASGFTFSSYSMNWVRQAPGKGLEWVSYISSSGTINYADSVKGRFTISRDNAKNSLYLQMNSLRAEDTAVYYCARHRIADSPSRAFDIWGQGTMVTVSS VL: not shown",0.789,13,34.9,0.9,0.229,0.859,0.251,–,–

# Continued, values first:
Kd (human TIGIT-his) [nM],Kd (mouse TIGIT-his [1]) [nM],Kd (monkey TIGIT-his) [nM],EC50 (human TIGIT on CHO cells [2]) [nM],EC50 (human TIGIT on CHO cells [3]) [nM],IC50 (human TIGIT on CHO cells [4]) [nM],IC50 (human TIGIT on CHO cells [5]) [nM],binding result (mouse TIGIT-his [6]),IC50 (human TIGIT on CHO cells [7]) [nM],Binder
3.29,46.4,62.3,0.329,0.139,0.221,0.14,–,–,"ADI-30268 (antibody, V domains shown) VH: QVQLVQSGAEVKKPGASVKVSCKASGYTFGSYYMGWVRQAPGQGLEWMGIIDPSGGRTSYARKFQGRVTMTRDTSTSTVYMELSSLRSEDTAVYYCARARTPSSWPYGMDVWGQGTTVTVSS VL: DIQMTQSPSSLSASVGDRVTITCRASQSINSYLNWYQQKPGKAPKLLIYAASSLQSGVPSRFSGSGSGTDFTLTISSLQPEDFATYYCQQSLLTPFTFGGGTKVEIK"
1.76,134,10.6,0.446,0.176,0.296,0.189,–,–,"ADI-30286 (antibody, V domains shown) VH: EVQLLESGGGLVQPGGSLRLSCAASGFTFGPYGMSWVRQAPGKGLEWVSAISGSGASTWYADSVKGRFTISRDNSKNTLYLQMNSLRAEDTAVYYCAKDPGTHYSGYYYIWRYWGQGTLVTVSS VL: EIVMTQSPATLSVSPGERATLSCRASQSVSSNLAWYQQKPGQAPRLLIYSASTRATGIPARFSGSGSGTEFTLTISSLQSEDFAVYYCQQYVPHPPFTFGGGTKVEIK"
1.31,5.7,7.19,0.475,0.186,0.668,0.224,–,–,"ADI-30288 (antibody, V domains shown) VH: EVQLLESGGGLVQPGGSLRLSCAASGFTFGPYGMSWVRQAPGKGLEWVSAISGSGASTWHADSVKGRFTISRDNSKNTLYLQMNSLRAEDTAVYYCAKDPGTDSTGYYYIWRYWGQGTLVTVSS VL: EIVMTQSPATLSVSPGERATLSCRASQSVSSNLAWYQQKPGQAPRLLIYSASTRATGIPARFSGSGSGTEFTLTISSLQSEDFAVYYCQQYVPHPPFTFGGGTKVEIK"
1.75,–,4.53,0.409,0.132,0.217,0.116,no binding,–,"ADI-30278 (antibody, V domains shown) VH: QVQLVQSGAEVKKPGASVKVSCKASGYTFTEYYMHWVRQAPGQGLEWMGIISPSAGSTKYAQKFQGRVTMTRDTSTSTVYMELSSLRSEDTAVYYCARDHDIRLAGRLADYWGQGTLVTVSS VL: DIQMTQSPSSVSASVGDRVTITCRASQGISSWLAWYQQKPGKAPKLLISAASSLQSGVPSRFSGSGSGTDFTLTISSLQPEDFATYYCQQAVILPITFGGGTKVEIK"
–,–,–,0.61,–,–,–,–,0.404,"ADI-30272 (antibody, V domains shown) VH: QVQLVQSGAEVKKPGASVKVSCKASGYTFTEYYMHWVRQAPGQGLEWMGIISPSAGSTSYAQKFQGRVTMTRDTSTSTVYMELSSLRSEDTAVYYCARDHDIAAAGRLADYWGQGTLVTVSS VL: DIQMTQSPSSVSASVGDRVTITCRASQGISSWLAWYQQKPGKAPKLLISAASSLQSGVPSRFSGSGSGTDFTLTISSLQPEDFATYYCQQAVILPITFGGGTKVEIK"
–,–,–,0.496,–,0.603,–,–,–,"ADI-27297 (antibody, V domains shown) VH: QVQLVQSGAEVKKPGASVKVSCKASGYTFTSYYMHWVRQAPGQGLEWMGIINPSGGSTSYAQKFQGRVTMTRDTSTSTVYMELSSLRSEDTAVYYCARDHDIAAAGRLADYWGQGTLVTVSS VL: DIQMTQSPSSVSASVGDRVTITCRASQGISSWLAWYQQKPGKAPKLLISAASSLQSGVPSRFSGSGSGTDFTLTISSLQPEDFATYYCQQAVILPITFGGGTKVEIK"
–,–,–,0.371,–,0.278,–,–,–,"ADI-30296 (antibody, V domains shown) VH: EVQLVESGGGLVQPGGSLRLSCAASGFTIGGYSMNWVRQAPGKGLEWVSYISSSSTIHYADSVKGRFTISRDNAKNSLYLQMNSLRAEDTAVYYCARHRIGRSPSRAFDIWGQGTMVTVSS VL: not shown"
